Like-named read-outs stand apart in the source and are kept apart here.
Experiments:
Experiment in all cases: SEC-MALS
[1] = target: QatB (untagged, co-expressed with His6-QatC) (Escherichia coli NCTC9009)
[2] = target: His6-QatC (co-expressed with QatB) (Escherichia coli NCTC9009)
[3] = target: His6-QatC (co-expressed with QatB) (Escherichia coli NCTC9009); remark: listed apart in the source

| Substance | stoichiometry N [1] | stoichiometry N [2] | stoichiometry N [3] |
| --- | --- | --- | --- |
| QatD (untagged, co-expressed) (enzyme) | 1 |  |  |
| QatB (untagged, co-expressed with His6-QatC) (natural protein) |  | 1 | 1 |

Source: paper doi:10.1101/2025.11.03.686418
